Experiment: soluble on expression in E. coli; label from the status in PepcDB or PDB records

| Sequence | soluble on expression in E. coli |
| --- | --- |
| IGFRFDDSKGTVFIDGDVEEITGYSTEDFLSHRVKWADLVLPEDQYLIFERINRSVSNPDHSIETEYRIKRKNGEIRWIREFLQKFPEESKNSRQFQGFIHDITGRKKA | not soluble |
| IGQVDFGIAGNFSYNKNEILDLGGGDPNKYLDATDGYSQRNKVGEAMNSYYIYRADGFFNSQEEADAYTAKYGNPFGKTFKAGDLRYVDTNKDGKLTADDREYCGSSDPKIIYGFNINAGWKGIDLSLMFNGAAGVKRLFDGYEVYGNFSGDAAHPATIWRDAWTPDNHDASMPRIFYDTNSASSSRSVQSDFWLQDTSYLRLKNLQLGYTLPKGWLNSVGVENIRIYYSVENLLTFDKMKINIDPESTSQRLSSYPLLRTHAFGVNVTF | not soluble |
| IKKPMSASALFVQDHRPQFLIENPKTSLEDATLQIEELWKTLSEEEKLKYEEKATKDLERYNSQMKRAIEQESQMSLKD | soluble |
| IPELKDHLRIFRPRKLTLKGYRQHWVVFKETTLSYYKSQDEAPGDPIQQLNLKGCEVVPDVNVSGQKFCIKLLVPSPEGMSEIYLRCQDEQQYARWMAGCRLASKGRTMADSSYTSEVQAILAFLSLQRT | soluble |
| IQILSKSKLEKCEKTSDSGNLNCSTKIVLNLAVPSGSSGGEASIVAEIVEVEDNSSSNMQTVRIPPVITVNKSAAYALYDLTYIRDVPYKPQEYHVTTRKCEPDAGPDIVQICERLRDEKGNVLEQTQPICCPCGPQRRMPSSCGDIFDKMIKGKANTAHCLRFPGDWFHVFGIGQRSLGFSVRVELKTGTRVSEVIIGPENRTATANDNFLKVNLIGDFGGYTSIPSFEDFYLVIPREAAEAGQPGSLGANYSMWMLLERVRFTLDGLECNKIGVGYEAFNTQPNFCSSPYWSCLHNQLWNFRESDINRIDRHQLPLYGLEGRFERINQHPNAGPHSFSIGVTETLNTNLMIELRADDIEYVFQRSPGKIINIAIPTFEALTQFGVAAVIIKNTGEVEASYSLTFDCSKGVAFVEEQFFIIKPKAVTTRSFKLYPTKDQAAKYICTAILKDSQFSEVDRAECQFSTTATVLDNGTQVTNPFQIPETQPKGFFDSIRILWTKIINGLVDFITGDTCRNKCSSFFDFSCHIQYVCLS | not soluble |
| ITDNTLIRNDTGDGDAVYDLVLNADGLDEDYSYQLKVMEEQPSDKQANELFTQAKKEIDDSFCEENQSVEQVRGHVIMKDAYASGAVEAEWTLSDYDVVDINGDVNQDAFEEADDEQGKLISASVELSCGEHRQLYDFSFVVFPDELEAGERLIKDINRHIDSEMSKTGTKKLTLPDEVDGVKLSWSQEKSNTAAKIAMLEVVVIVLLVLEKKEKKKTAQKERNIQLQLEYPEIVSKMAVLMGSGMTVEQAWNRITARYLDERKNNDKNIMPAYEEMLVTEREISDGVTGRKAYAGFAERVKLPCYQKLVRIILQSIHKGSKGVCEMLEKESEDAFDERRLLALKLGEEAGTKM | not soluble |
| ITEQTGQLVYDYNIEKDIADVAGNIEELTGFTSEELGNINLKLWTSRIHPEDLNRFLENHKKYLEPDRKSYRIEYRFRKKNGEYIYLEENWVSPEGDRKSSVKRVLGVIKNITERKQA | not soluble |
| ITLAVKVGMIQLCGCSGCHISLLDLHDKLLEVLPNLEIVYAPIIADPKEIPEGIDVFLVEGGIRNEHDEHLIHEIREKSKIVIAWGTCAAYGGIPGLGNLYKKEELLNYVYSTDSTENKGEIPSEEIPPLEEYVKPIKDFIKVDYTIPGCPPTPKMIADAIIALLNGEEPKLPTKIVC | not soluble |
| KADNSSVEKLVVQVQQLDPVKGNKDVGTVEITESAYGLVFTPHLHGLAQGLHGFHIHQNPSCEPKEKDGKLVAGLGAGGHWDPKETKQHGYPWSDNAHLGDLPALFVEHDGSATNPVLAPRLKKLDEVKGHSLMIHEGGDNHSDHPAPLGGGGPRMACGVIK | soluble |
| KALVSIQASNIPKTAYTATDFVDMNSYSYNNITTSLPGNYADFAVIEVNLNLKNQRDQQILHDFVKPAIKAYKALGDTLELFSAKPLNQFIEQNYYLLGYPVINKGNNTANLLLAQQKSFDHNNSDHNQKSQWFTK | not soluble |
| KANFQWETGFTFSVNKNTIKKLYGEYETIVDALGNTIVKERDDVTNGWFIGHPVSAIWDYKVTGIWQKDEVKEAAKYSQRPGDPKVQNIYTDDDKVNADGSVTPVYNNKDKQFMGETTPPIHWSLRNSFTIFKDWVFSFNMYSYMGHKSLDTNYLNNDNNYSQITNCRNVYTKEYWTVDNPSNTYARLSAQGPTGISAPARVIDRSFIRLENISLAYNIPMKFLEKYKIQNAKIFTTVRNVATWSKEWEYGDPETGGLAPRTYSLGINLTF | not soluble |
| KELIMCLSGSILRSATQQYSVGDYIEINGLRGRVVDINLLNTLMMQVGPNPLVGQLAGTTVSFPNSLLLSHPVRRDNILGDYVIHTVEIPVPIHLDSDEAVCRLKAVLEPLCAPYIPAIQRHLENVQAEKLFITPAARPRVTRVPYDDKAYRIIVRFASPVSKRLEIQQAVMDEFLRVQYRLLNHPAGSETL | not soluble |
| KETKTTVHKFGLEPPSELIQKQLRANLDDDIWEVIRSRKIDGEHVILDKDYFFRKHVPHLTKEICENSIYEYIEGELGLSISYAQKEIVAEPCTDEDRELLDLRGYDHMVVVRNYVFLEDTSLFQYTESRHRL | not soluble |
| KETVPYQIPYTPSELEELQQNIKLELEGKEQELALELLNYLNEKGFLSKSVEEISDVLRCSVEELEKVRQKVLRLE | soluble |
| KGFSSEDKGEWKLKLDASGNGQAVIRFLPAKTDDALPFAILVNHGFKKNGKWYIETCSSTHGDYDSCPVCQYISKNDLYNTNKTEYSQLKRKTSYWANILVVKDPQAPDNEGKVFKYRFGKKIWDKINAMIAVDTEMGETPVDVTCPWEGANFVLKVKQVSGFSNYDESKFLNQSAIPNIDDESFQKELFEQMVDLSEMTSKDKFKSFEELNTKFNQVLGTAALGGAAAAAAS | soluble |
| KHPNNAIIIGDNLDALKLLKSAYSEKIKMIYIDPPYNTGNDEFIYPDNFRQDYQKILREVGLMEIDENGKEIESESLKFFKNTQGSGTHSGWLSFMLPRLKLARDLLKEDGVIFISIDDNECANLKILCDEIFGEDNFVGDFIRKTKSTTNDAKIGLNYQHEFLLCYAKDKNYTNLLGGEKNLENYKNPDNDPNGAWINDNPSAKSGNMKTGYFGVTNPYTNKVDYPPVGMFWRFSQNTIQKHIDEGRICFKKEHKDNERGFIYKRYLKDLKTTQKTFDSLIFSDNCYMNQAATKELLNLGMGEYFTYPKGVEFMKKIILHSTTPNEGDIILDFFAGSGTTVHAVMELNAEDKGNREFILVQIDEEIKEDESAYDFCKKELKSAKPVISDITIERVKRAAQKISQLSKDSGLDLGFKVYTLQDKVQII | not soluble |
| KIPEFRDVLISTIGGPHAKLGYEIARALVEDKSGRIKLLYVGSSEKEREKAEKVFEEAMEILNGLNVEREFAISSSPSDVVAREAESFDLVIVGASERTFLKNFLTGLFPEKVVMKTSKTVAMTRKWVGLLNR | not soluble |
| KKAQLIVAGIGPGSPEDITPAVIQAVKNSDVVIGYKYYFQFIEPYLEPGTECIDTGMKREKARAEQAFELAEQGKTVCVISSGDAGIYGMAPLVYEMKRERGSRVEIEVLPGIS | not soluble |
| KKHTGYVGLKNQGATCYMNSLLQTLFFTNQLRKAVYMMPTEGDDSSKSVPLALQRVFYELQHSDKPVGTKKLTKSFGWETLDSFMQHDVQELCRVLLDNVENKMKGTCVEGTIPKLFRGKMVSYIQCKEVDYRSDRREDYYDIQLSIKGKKNIFESFVDYVAVEQLDGDNKYDAGEHGLQEAEKGVKFLTLPPVLHLQLMRFMYDPQTDQNIKINDRFEFPEQLPLDEFLQKTDPKDPANYILHAVLVHSGDNHGGHYVVYLNPKGDGKWCKFDDDVVSRCTKEEAIEHNYGGHDDDLSVRHCTNAYMLVYIRESKLSEVLQAVTDHDIPQQLVERLQEEKRIEAQKRKERQE | soluble |
| KKILVIGDLIADYYLWGKSERLSPEAPVPVLEVQRESKNLGGAANVANNLISLKAKVFLCGVVGDDLEGEHFISALKARGIDASGILIDKTRCTTLKTRIIAQNQQIARVDKEIKDPLNADLRKKLLDFFTEKIQEIDGVILSDYNKGVLDFELTQAMIALANQHHKLILCDPKGKDYSKYSHASLITPNRTELEHALHLKLDSHANLSKALQILKETYHIAMPLVTLSEQGIAFLEKGELVNCPTIAKEVYDVTGAGDTVIASLTLSLLESMSLKDACEFANAAAAVVVGKMGSALASLEEIALILNQTHPKILSLE | not soluble |

Reference: the DeepSol protein solubility set
